Results as given in patent US7084106.

Target: cell surface class I HLA-ABC molecules on human umbilical cord vascular endothelial cells (HUVECs) (human)
Experiment: flow cytometry on HUVECs, isotype-matched mouse IgG2a control

With “isotype-matched mouse IgG2a mAb (nonspecific mouse monoclonal antibody)” as the substance, how does the percent binding (control threshold) read?
The percent binding (control threshold) was less than 1%.
